The target in experiment [1] is Human HP1β CSD (human). The experiment in a line: SEC.
Experiment [2] has as its target Human HP1β CSD (human). As to the kind of experiment: crystal structure.

In the case of “Sgo1P1 (from UniProt Q5FBB7 425-443) (peptide)”, in the experiment with Human HP1β CSD (human) [1], the stoichiometry N (Sgo1P1 per two HP1β CSD) turned out to be 1. The substance further returned a stoichiometry N (Sgo1P1 peptide per CSD dimer) in the experiment with Human HP1β CSD (human) [2] of 1.

For Human HP1β CSD (domain or fragment), the stoichiometry N in the experiment with Human HP1β CSD (human) [1] and with Human HP1β CSD (human) [2] was 2 in each case.

Values taken from PMC3078076.
